The target of assay [1] is DR4-Fc (UniProt O00220). Kind of assay: BLI; Octet; DR4-Fc or DR5-Fc immobilised on protein A-coated biosensors, inserted into solutions of TRAIL proteins at different concentrations (2.5-50 nM). A general note: Biolayer interferometry detects binding as a change in optical thickness at a sensor tip.
The target of assay [2] is DR5-Fc (UniProt O14763). Described as above.

As usually defined, the Kd is the equilibrium constant for the complex coming apart. The low end stands for a tighter complex, the high end for a looser complex.

Sequence of UniProt O00220 (O00220 24-239): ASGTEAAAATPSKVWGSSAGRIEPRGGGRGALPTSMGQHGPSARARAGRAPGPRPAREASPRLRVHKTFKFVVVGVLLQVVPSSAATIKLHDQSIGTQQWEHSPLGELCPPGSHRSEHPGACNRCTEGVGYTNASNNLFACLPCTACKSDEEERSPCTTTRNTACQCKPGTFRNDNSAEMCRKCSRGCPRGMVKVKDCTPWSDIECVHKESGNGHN
Sequence of UniProt O14763 (O14763 56-210): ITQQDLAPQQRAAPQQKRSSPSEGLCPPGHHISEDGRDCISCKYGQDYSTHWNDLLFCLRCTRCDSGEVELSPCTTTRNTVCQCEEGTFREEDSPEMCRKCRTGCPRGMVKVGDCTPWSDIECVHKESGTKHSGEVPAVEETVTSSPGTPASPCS

Consider “RGR-TRAIL (tumor-homing RGR peptide fused to the N-terminus of TRAIL) (ligand)”, for which the values for the Kd in assay [1] and in assay [2] were 1.1 nM and 0.46 nM, respectively.

The record behind these values is PMC9176698.
